± gives the standard deviation of the averaged measurements.
These sequences were tested on ATP (assay: switch fluorescence ratio, 500 uM ATP over buffer (Cy3 cluster intensity, sum of 5 cycles each) (fold (ratio)); higher = stronger signal-on switching upon ATP binding; sequences stand for … in TCGTCGGCAGCGTCAGATGTGTATAAGAGACAGTTTTTTTTTTTTTTTTTTTTTTTTT…TC). Details: aptamer strand: ATP DNA aptamer (quencher-CACCTGGGGGAGTATTGCGGAGGAAGG + anchor), 100 nM annealed; ATP concentration: 500 uM.
Outline: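 Clusters carrying Cy3-labelled switching strands on a modified Illumina MiSeq flow-cell were annealed to 100 nM quencher-labelled ATP aptamer and imaged in selection buffer. They were imaged again after 15 min with 500 uM ATP at 22 °C, over five buffer/ATP cycles with NaOH stripping and re-annealing in between. For each cluster, the fluorescence ratio is the summed Cy3 intensity of the target cycles divided by that of the buffer cycles, averaged per switch-domain sequence. Clusters outside 100-1000 RFU were left out.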
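Note: ATP exposure 15 min at 22 °C before imaging.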

| Sequence | switch fluorescence ratio |
| --- | --- |
| TCAAATAGCG | 1.031 ± 0.0032 |
| AATAAGATTT | 1.02 ± 0.026 |
| TGTTTGAGGT | 0.999 ± 0.033 |
| GATTAATTTT | 1.02 ± 0.043 |
| GCCTTCCTTT | 2.15 ± 0.72 |
| GTGGTAACCT | 1.4 ± 0.12 |
| GGATTTTCAC | 1 ± 0.03 |
| CGGTGTTTGG | 0.972 ± 0.015 |
| GGTCGTGCGC | 0.996 ± 0.029 |
| AGGAGTGGCG | 0.97841 ± 0.00086 |
| TTTGAAGAGT | 1.04 ± 0.017 |
| GGGCTACTTG | 0.9881 ± 0.0021 |
| GCGGGAGGAT | 1.031 ± 0.01 |
| TTCGCTGGTA | 1.15 ± 0.22 |
| TAAGGGTCAG | 0.9953 ± 0.0012 |
| CAATAATGTA | 1.03 ± 0.051 |
| ATTTAAAGGT | 0.964 ± 0.018 |
| ATCTGAGTTG | 0.989 ± 0.031 |
| GATGCGGGAG | 1.0227 ± 0.00027 |
| TGTGGCCCAC | 0.989 ± 0.017 |
| GGTTTAGGCT | 1.08 ± 0.12 |
| TCTGAGGGGA | 1.02 ± 0.055 |
| GATTGGTGTG | 0.997 ± 0.024 |
| GGGTTGTCTG | 0.961 ± 0.063 |
| TTTCATCGCC | 1.01 ± 0.012 |

| Sequence | switch fluorescence ratio |
| --- | --- |
| CGTTTTTATG | 1.03 ± 0.04 |
| CGGTCGGGCG | 1.03 ± 0.023 |
| GCTGTCGGTG | 0.972 ± 0.0079 |
| GTAAAGCCTG | 0.968 ± 0.032 |
| GCTCGTAAGT | 1.01 ± 0.0049 |
| TTAAGGAAAA | 1.04 ± 0.071 |
| TTTGTCTATA | 1 ± 0.017 |
| GATCCTGAGG | 0.968 ± 0.077 |
| TGAATTTATA | 1.024 ± 0.0093 |
| AAAGCGGATG | 0.986 ± 0.077 |
| AGGGGACGAT | 0.9887 ± 0.0056 |
| GGGCTATGTC | 1.01 ± 0.038 |
| TAAATTTCGA | 1.04 ± 0.018 |
| TGTTGAGCAT | 1.09 ± 0.089 |
| CGACCACGTA | 1.12 ± 0.029 |
| GCAAGTTGAT | 0.96591 ± 0.00067 |
| GCACGGGAGG | 1.01 ± 0.032 |
| GCTATTTGGA | 0.997 ± 0.012 |
| GATCGATCGT | 1 ± 0.027 |
| TATGGGCTAC | 1.56 ± 0.74 |
| AACCGTTCGA | 1.07 ± 0.046 |
| CTGATGGTAG | 1.01 ± 0.015 |
| TAAATTTGAG | 0.991 ± 0.011 |
| AGGAGCGGCA | 1.018 ± 0.0095 |
| AGGGAAAGTG | 0.971 ± 0.02 |

| Sequence | switch fluorescence ratio |
| --- | --- |
| TGAGTCCATT | 0.985 ± 0.018 |
| CGTTTGCCGT | 0.985 ± 0.024 |
| AAGCTAAATG | 1.01 ± 0.05 |
| GGGTCTAATT | 0.9917 ± 0.0014 |
| TAGGGACTGG | 0.996 ± 0.016 |
| TGTGACAGTT | 1.09 ± 0.1 |
| CACCCCGCAC | 3.46 ± 0.48 |
| GGGGCAATAT | 3.69 ± 1.9 |
| CCGGATTTTG | 0.981 ± 0.012 |
| GGTTAAGGAT | 0.9884 ± 0.0023 |
| TGGGTCGGGG | 0.985 ± 0.016 |
| GGTTATTGGA | 0.995 ± 0.058 |
| TGTTTGTGCT | 0.983 ± 0.027 |
| GTGGGGGACG | 0.982 ± 0.021 |
| GCAGATCGAT | 1.03 ± 0.015 |
| TAATAGTAAT | 1.02 ± 0.011 |
| GGGGGGAGTT | 0.999 ± 0.038 |
| AGGTTCTTA | 0.994 ± 0.06 |
| ATTCATGGGG | 0.98 ± 0.019 |
| CCTGGGGTTG | 1.05 ± 0.14 |
| TATTTTTACA | 1.012 ± 0.0086 |
| TCTCTGTAGG | 1.03 ± 0.037 |
| CCACAAAATT | 1.1 ± 0.18 |
| ACCAAACCGG | 1.039 ± 0.0079 |
| CGTCCTATTT | 1.01 ± 0.029 |

| Sequence | switch fluorescence ratio |
| --- | --- |
| ATTCCGTATA | 1.25 ± 0.022 |
| GAATTGAAAA | 1.02 ± 0.026 |
| TACCGGGGTC | 1 ± 0.042 |
| ATTTGATCGA | 1.02 ± 0.075 |
| TCCAGGGGGA | 1.1 ± 0.051 |
| TGTGATTAGG | 0.996 ± 0.03 |
| TCGTACTGAC | 1.03 ± 0.044 |
| GATTGTTTTG | 1.01 ± 0.034 |
| GAGGGTTCCG | 1.01 ± 0.026 |
| TGGATGTATG | 0.99 ± 0.04 |
| TTTAATTTGG | 0.9816 ± 0.0073 |
| GGTGGTAGTT | 1.012 ± 0.003 |
| GAAAGCGGGG | 0.968 ± 0.024 |
| TGTTTTGGCA | 0.9963 ± 0.0052 |
| ACAGGATACA | 1.14 ± 0.078 |
| CGGGATTAGC | 0.983 ± 0.022 |
| GACGTAGTTT | 1.014 ± 0.0021 |
| GTGTAACCTG | 1.01 ± 0.054 |
| AAGGTTTCAT | 1 ± 0.031 |
| TAGGGCTTAG | 1.02 ± 0.032 |
| TATATTAGGT | 1.13 ± 0.1 |
| AACTCGGATC | 1.01 ± 0.042 |
| AGATCAGGAT | 1.02 ± 0.012 |
| GCAGGAATGG | 1.113 ± 0.0098 |
| TTTTGACACG | 0.959 ± 0.03 |

| Sequence | switch fluorescence ratio |
| --- | --- |
| GTGTGATCCG | 1.01 ± 0.049 |
| GCAAATGTAT | 1.004 ± 0.0037 |
| AGTTGGAAAA | 0.997 ± 0.01 |
| GTGTACGCTG | 0.988 ± 0.027 |
| TTTATGGTGG | 1.01 ± 0.013 |
| AATATCTGAC | 1.18 ± 0.046 |
| TATTAGATTT | 0.996 ± 0.014 |
| GGTTCACGGG | 0.983 ± 0.015 |
| TTTTGTTAGT | 0.997 ± 0.022 |
| GTTGCTACTG | 1.05 ± 0.041 |
| TACGAGTTCT | 0.984 ± 0.013 |
| GGAATATTGG | 1.02 ± 0.019 |
| TCGGACTCTT | 1.01 ± 0.024 |
| AAGAATAAAT | 1 ± 0.029 |
| GATCGGGTTG | 0.999 ± 0.026 |
| AGAAAAAGGA | 1.01 ± 0.044 |
| CAGGTAGGAG | 0.985 ± 0.017 |
| TTAAGAAGAC | 1.04 ± 0.018 |
| TTGTTGAATA | 1.003 ± 0.0016 |
| TACCGGGTCT | 1.032 ± 0.005 |
| AAGGATTAAT | 0.987 ± 0.016 |
| TTTTTGACCT | 1.38 ± 0.24 |
| CCCCAATTT | 0.999 ± 0.025 |
| TGGTCGCATT | 1.01 ± 0.034 |
| TACTGCAATT | 1.35 ± 0.22 |

| Sequence | switch fluorescence ratio |
| --- | --- |
| GTTGAACTTT | 1.02 ± 0.046 |
| CAGCGCGTCT | 1.07 ± 0.06 |
| GGGGGCTTAT | 1.01 ± 0.017 |
| AGATGACGGG | 0.975 ± 0.033 |
| CAGGCAGTTT | 1.01 ± 0.016 |
| AGGATCGGCG | 0.9769 ± 0.0046 |
| TTTAAGTGTC | 1.09 ± 0.11 |
| AATTACCTCG | 1.04 ± 0.043 |
| AGACTGGAGC | 1.06 ± 0.026 |
| TTCAATGGAA | 1.03 ± 0.011 |
| GCTCTAGTGT | 0.996 ± 0.013 |
| TGGGGCTATT | 1.02 ± 0.045 |
| TGTGTCGGTC | 1.07 ± 0.085 |
| ATGGCAGACA | 0.9836 ± 0.0036 |
| TAGGAGGGCT | 0.985 ± 0.049 |
| TTGAGGCGGA | 1.04 ± 0.033 |
| ACAAGATCGG | 1.0072 ± 0.00016 |
| CGGGAACTCG | 1.01 ± 0.04 |
| TCGGGATCGG | 1 ± 0.015 |
| GCGGGAGAGG | 1.02 ± 0.033 |
| ATGGCGGCGT | 0.959 ± 0.035 |
| TGAAATGGGT | 1.17 ± 0.24 |
| CGCGGCTATT | 1.07 ± 0.034 |
| TGAATTTAGT | 0.9729 ± 0.0089 |
| GGGCACCAGG | 1.21 ± 0.03 |

| Sequence | switch fluorescence ratio |
| --- | --- |
| TTCAGAAATT | 1.01 ± 0.011 |
| TTGTCCAGGA | 0.977 ± 0.048 |
| GAATATTACC | 1.06 ± 0.014 |
| TAATGGGGTT | 1 ± 0.024 |
| CATGTGTGGT | 1.004 ± 0.0078 |
| ACCGGGGGAG | 0.984 ± 0.02 |
| GTGGGATTCG | 1.011 ± 0.0059 |
| TTACTACGGC | 1.09 ± 0.021 |
| TTATGGGAAA | 1.02 ± 0.023 |
| GGGGTTTACT | 1.01 ± 0.021 |
| GTGGTACATA | 0.981 ± 0.022 |
| TAAGTCGTGG | 0.9735 ± 0.0019 |
| AAGGAGGCTT | 1.05 ± 0.066 |
| AATTGGGCGC | 1.01 ± 0.011 |
| GGGGAAGGAA | 0.998 ± 0.027 |
| GGTGGTTGTA | 0.919 ± 0.043 |
| GTGGAAGTCG | 0.966 ± 0.017 |
| ATTCGGGGGC | 1.11 ± 0.2 |
| TAGGGATTTT | 0.986 ± 0.018 |
| GTGAGCCGGT | 0.983 ± 0.013 |
| GGATGCTGGG | 1 ± 0.015 |
| TCTAGGGCAA | 1.66 ± 0.086 |
| GGAAGGGGTG | 1.01 ± 0.035 |
| AACGTCAGTT | 1.003 ± 0.0017 |
| AATAAGGCAT | 1.01 ± 0.024 |

| Sequence | switch fluorescence ratio |
| --- | --- |
| CAGTCCGGGA | 1.101 ± 0.0079 |
| TGAGTTAAGT | 0.997 ± 0.01 |
| TACGCGTAAT | 1.012 ± 0.0052 |
| TAGGTCTGGG | 1.01 ± 0.036 |
| TATCGAATCC | 0.99 ± 0.025 |
| AGAATACGGA | 1.05 ± 0.018 |
| CCAAAAAAGG | 0.9625 ± 0.005 |
| TCTATAAATA | 0.985 ± 0.022 |
| TTCAGGATTA | 0.9939 ± 0.0091 |
| TATTTAATTT | 0.997 ± 0.026 |
| GTTCGAAGAC | 1.015 ± 0.0023 |
| AGCAACGTTC | 1.07 ± 0.081 |
| GGTAACGTTC | 0.989 ± 0.015 |
| AGTTTGATGT | 1 ± 0.023 |
| ATTTTTGAGT | 1.02 ± 0.025 |
| TAATGTTTAT | 0.996 ± 0.026 |
| TTTTTGAATG | 0.983 ± 0.032 |
| CGCTTGACTT | 0.985 ± 0.028 |
| TCAGTTTGGA | 1.01 ± 0.018 |
| GGTATTCCGT | 1.03 ± 0.045 |
| ACAGATGGGG | 1.01 ± 0.015 |
| GCTGTCATTC | 1.01 ± 0.014 |
| TCCTTGATAT | 0.995 ± 0.04 |
| GGATTGGGTT | 1.04 ± 0.069 |
| TAGACTTTGG | 0.968 ± 0.025 |

Source: the supplement of paper PMC10126150
